By Kd is commonly meant the equilibrium constant for the complex coming apart. A lower Kd goes with higher affinity.

The text below walks through data of article PMC6366860.

The target of assay [1] is murine α-cardiac myosin (filaments) (mouse) (UniProt Q02566). Description: co-sedimentation.
Assay [2] concerns the target F-actin from rabbit skeletal muscle (rabbit) (UniProt P68135). Description: co-sedimentation.

The substance “mouse short form C0-C2, N-terminal tagged (mSF2), lacking the 8 amino acid NTE (domain or fragment)” showed a cosedimentation relative to human C0-C2 in assay [1] of 162%.
“wild-type mouse cMyBP-C C0-C2 (with the N-terminal extension, NTE) (domain or fragment)” displayed a cosedimentation relative to human C0-C2 in assay [1] of 60%. In assay [2], this substance yielded a Kd of 7.9 µM and a stoichiometry N (mol C0-C2/mol actin) of 1.
